Reference: the Immune Epitope Database (IEDB)

Tests used:
HLA-B*39:01 = assay: IEDB peptide-MHC binding, purified MHC/competitive/fluorescence; filed as Kd, often an IC50 or EC50 that approximates it; ≥ and ≤ were set here for values at or beyond the usual limits of such assays; conditions: source organism: Pseudomonas aeruginosa PAO1
HLA-B*58:01 = assay: IEDB peptide-MHC binding, purified MHC/direct/fluorescence; filed as Kd, often an IC50 or EC50 that approximates it; ≥ and ≤ were set here for values at or beyond the usual limits of such assays
HLA-A*26:01 = assay: as above
HLA-A*03:01 [1] = assay: as above
HLA-B*27:05 = assay: as above
HLA-B*40:01 [2] = assay: as above
HLA-A*11:01 [3] = assay: as above
HLA-B*15:01 = assay: as above
HLA-B*08:01 = assay: as above
HLA-A*31:01 = assay: as above
HLA-A*02:01 [4] = assay: as above
HLA-A*69:01 = assay: as above
HLA-A*01:01 = assay: as above
HLA-B*07:02 = assay: as above
HLA-B*18:01 [5] = assay: IEDB peptide-MHC binding, purified MHC/competitive/radioactivity; filed as Kd, often an IC50 or EC50 that approximates it; ≥ and ≤ were set here for values at or beyond the usual limits of such assays
HLA-B*44:03 = assay: as above
HLA-B*45:01 = assay: as above
HLA-B*40:02 = assay: as above
HLA-B*44:02 [6] = assay: as above
HLA-B*40:01 [7] = assay: as above
HLA-B*44:02 [8] = assay: IEDB peptide-MHC binding, purified MHC/direct/fluorescence; filed as Kd, often an IC50 or EC50 that approximates it; ≥ and ≤ were set here for values at or beyond the usual limits of such assays; conditions: source organism: Salmonella enterica
HLA-A*11:01 [9] = assay: IEDB peptide-MHC binding, purified MHC/competitive/fluorescence; ≥ and ≤ were set here for values at or beyond the usual limits of such assays
HLA-A*24:02 = assay: as above; conditions: source organism: Zaire ebolavirus
HLA-A*02:01 [10] = assay: as above; conditions: source organism: Zaire ebolavirus
HLA-A*03:01 [11] = assay: IEDB peptide-MHC binding, purified MHC/competitive/fluorescence; filed as Kd, often an IC50 or EC50 that approximates it; ≥ and ≤ were set here for values at or beyond the usual limits of such assays; conditions: source organism: Influenza A virus (A/Puerto Rico/8/1934(H1N1))
HLA-B*18:01 [12] = assay: IEDB peptide-MHC binding, purified MHC/direct/fluorescence; filed as Kd, often an IC50 or EC50 that approximates it; ≥ and ≤ were set here for values at or beyond the usual limits of such assays; conditions: source organism: Yellow fever virus 17D
[13] = source organism: Pseudomonas aeruginosa
[14] = source organism: Mammarenavirus lassaense
[15] = source organism: Salmonella enterica
[16] = source organism: Mammarenavirus juninense
[17] = source organism: SARS coronavirus Tor2
[18] = source organism: Mammarenavirus guanaritoense
[19] = source organism: Zaire ebolavirus

SEYKAAGYL was tested, and the Kd (HLA-B*39:01) was at least 20 µM, the Kd (HLA-B*58:01; [13]) was at least 20 µM and the Kd (HLA-A*26:01; [13]) was at least 20 µM. The Kd (HLA-A*03:01 [1]; [13]) was at least 20 µM, the Kd (HLA-B*27:05; [13]) was at least 20 µM and the Kd (HLA-B*40:01 [2]; [13]) was 0.0196 µM. For the same sequence, the Kd (HLA-A*11:01 [3]; [13]) was at least 20 µM, the Kd (HLA-B*15:01; [13]) was at least 20 µM and the Kd (HLA-B*08:01; [13]) was at least 20 µM. It also gave a Kd (HLA-A*31:01; [13]) of at least 20 µM, a Kd (HLA-A*02:01 [4]; [13]) of at least 20 µM and a Kd (HLA-A*69:01; [13]) of at least 20 µM. It also gave a Kd (HLA-A*01:01; [13]) of at least 20 µM and a Kd (HLA-B*07:02; [13]) of at least 20 µM.
HDLMKQKCL gave a Kd (HLA-B*18:01 [5]; [14]) of at least 77.5 µM, a Kd (HLA-B*44:03; [14]) of at least 78.1 µM and a Kd (HLA-B*45:01; [14]) of 19.1 µM. For the same sequence, the Kd (HLA-B*40:02; [14]) was 1.57 µM, the Kd (HLA-B*44:02 [6]; [14]) was at least 77.9 µM and the Kd (HLA-B*40:01 [7]; [14]) was at least 40 µM.
EEQTDPKTL showed a Kd (HLA-B*58:01; [15]) of at least 20 µM, a Kd (HLA-A*26:01; [15]) of at least 20 µM and a Kd (HLA-A*03:01 [1]; [15]) of at least 20 µM. For the same sequence, the Kd (HLA-B*27:05; [15]) was at least 20 µM, the Kd (HLA-B*44:02 [8]) was at least 20 µM and the Kd (HLA-B*40:01 [2]; [15]) was 7.33 µM. The Kd (HLA-A*11:01 [3]; [15]) was at least 20 µM, the Kd (HLA-B*15:01; [15]) was at least 20 µM and the Kd (HLA-B*08:01; [15]) was at least 20 µM. It also gave a Kd (HLA-A*31:01; [15]) of at least 20 µM, a Kd (HLA-A*02:01 [4]; [15]) of at least 20 µM and a Kd (HLA-A*69:01; [15]) of at least 20 µM. It also gave a Kd (HLA-A*01:01; [15]) of at least 20 µM and a Kd (HLA-B*07:02; [15]) of at least 20 µM.
For HESFDLAGLF, the Kd (HLA-B*18:01 [5]; [16]) was 1.14 µM, the Kd (HLA-B*44:03; [16]) was 0.776 µM and the Kd (HLA-B*45:01; [16]) was 1.76 µM. For the same sequence, the Kd (HLA-B*40:02; [16]) was 0.435 µM, the Kd (HLA-B*44:02 [6]; [16]) was 0.175 µM and the Kd (HLA-B*40:01 [7]; [16]) was 1.98 µM.
DEDDSEPVL was tested, and the Kd (HLA-B*18:01 [5]; [17]) was 5.29 µM, the Kd (HLA-B*44:03; [17]) was 15.8 µM and the Kd (HLA-B*45:01; [17]) was 17.9 µM. For the same sequence, the Kd (HLA-B*40:02; [17]) was 3.17 µM, the Kd (HLA-B*44:02 [6]; [17]) was at least 38.3 µM and the Kd (HLA-B*40:01 [7]; [17]) was 0.137 µM.
KDESIFINK was tested, and the IC50 (HLA-A*11:01 [9]; source organism: Vaccinia virus Copenhagen) was at least 82.6 µM.
Sequence EDFLLMYEM has a Kd (HLA-B*18:01 [5]; [18]) of 0.0921 µM, a Kd (HLA-B*44:03; [18]) of 2.55 µM and a Kd (HLA-B*45:01; [18]) of 4.64 µM. The Kd (HLA-B*40:02; [18]) was 0.00567 µM, the Kd (HLA-B*44:02 [6]; [18]) was 0.582 µM and the Kd (HLA-B*40:01 [7]; [18]) was 16.9 µM.
DESALNISGY showed a Kd (HLA-B*18:01 [5]; [18]) of 0.0225 µM, a Kd (HLA-B*44:03; [18]) of 3.37 µM and a Kd (HLA-B*45:01; [18]) of at least 70 µM. The Kd (HLA-B*40:02; [18]) was at least 29.2 µM, the Kd (HLA-B*44:02 [6]; [18]) was 10.9 µM and the Kd (HLA-B*40:01 [7]; [18]) was at least 69.5 µM.
QELGHEDLM gave a Kd (HLA-B*18:01 [5]; [17]) of at least 31.8 µM, a Kd (HLA-B*44:03; [17]) of 3.71 µM and a Kd (HLA-B*45:01; [17]) of 2.74 µM. For the same sequence, the Kd (HLA-B*40:02; [17]) was 3 µM, the Kd (HLA-B*44:02 [6]; [17]) was 15.4 µM and the Kd (HLA-B*40:01 [7]; [17]) was 5.54 µM.
YEQVVMDYL showed a Kd (HLA-B*18:01 [5]; [17]) of 0.349 µM, a Kd (HLA-B*44:03; [17]) of 0.298 µM and a Kd (HLA-B*45:01; [17]) of 3.78 µM. For the same sequence, the Kd (HLA-B*40:02; [17]) was 0.0302 µM, the Kd (HLA-B*44:02 [6]; [17]) was 0.371 µM and the Kd (HLA-B*40:01 [7]; [17]) was 0.000609 µM.
EESASSGKL was tested, and the IC50 (HLA-A*11:01 [9]; [19]) was at least 214 µM.
Sequence HDWHLDPPF has a Kd (HLA-B*18:01 [5]; [16]) of 2.39 µM, a Kd (HLA-B*44:03; [16]) of 7.96 µM and a Kd (HLA-B*45:01; [16]) of at least 77.7 µM. It also gave a Kd (HLA-B*40:02; [16]) of 0.0221 µM, a Kd (HLA-B*44:02 [6]; [16]) of 18.5 µM and a Kd (HLA-B*40:01 [7]; [16]) of at least 72 µM.
With SEYKGPVTDV the Kd (HLA-B*18:01 [5]; [17]) was at least 70.5 µM, the Kd (HLA-B*44:03; [17]) was 0.795 µM and the Kd (HLA-B*45:01; [17]) was 0.0372 µM. It also gave a Kd (HLA-B*40:02; [17]) of 0.0229 µM, a Kd (HLA-B*44:02 [6]; [17]) of 17.1 µM and a Kd (HLA-B*40:01 [7]; [17]) of 1 µM.
KACLEKVQR gave an IC50 (HLA-A*11:01 [9]; [19]) of at least 188 µM.
With MGVTGILQL the IC50 (HLA-A*11:01 [9]; [19]) was at least 73.8 µM, the IC50 (HLA-A*24:02) was at least 85.2 µM and the IC50 (HLA-A*02:01 [10]) was 52.9 µM.
AEAYCTGML showed a Kd (HLA-B*18:01 [5]; [18]) of at least 77.5 µM, a Kd (HLA-B*44:03; [18]) of 0.343 µM and a Kd (HLA-B*45:01; [18]) of 1.38 µM. It also gave a Kd (HLA-B*40:02; [18]) of 0.111 µM, a Kd (HLA-B*44:02 [6]; [18]) of 0.182 µM and a Kd (HLA-B*40:01 [7]; [18]) of 0.116 µM.
YENAFLPFT gave a Kd (HLA-B*18:01 [5]; [17]) of 0.112 µM, a Kd (HLA-B*44:03; [17]) of 0.857 µM and a Kd (HLA-B*45:01; [17]) of 0.0936 µM. The Kd (HLA-B*40:02; [17]) was 0.0364 µM, the Kd (HLA-B*44:02 [6]; [17]) was 1.65 µM and the Kd (HLA-B*40:01 [7]; [17]) was 6.12 µM.
CIYRRFKYGLK was tested, and the Kd (HLA-A*03:01 [11]) was 0.0056 µM.
For SEQGEFKLL, the Kd (HLA-B*18:01 [12]) was 0.875 µM.
